Assay results reported in US20110081662A1, “SCREENING METHODS FOR BONE MORPHOGENETIC MIMETICS” (THRASOS THERAPEUTICS, INC., priority 2000, published 2011).

What was measured:
ECD of daf-4 receptor = molecular target: T1, ECD of daf-4 receptor (Caenorhabditis elegans, UniProt P50488); assay: Type II receptor-based HTS rapid solid-phase assay; format: binding, C. elegans; conditions: ECD immobilized on PVDF membrane, 18 h, room temperature
T1 construct: 1 includes additional portions on the N and C terminus; made in house; host or cells: transfected DHFR(-) CHO cell line PJ511.9.8, purified from conditioned medium
T1 sequence (P50488 with tags, fused parts or gaps): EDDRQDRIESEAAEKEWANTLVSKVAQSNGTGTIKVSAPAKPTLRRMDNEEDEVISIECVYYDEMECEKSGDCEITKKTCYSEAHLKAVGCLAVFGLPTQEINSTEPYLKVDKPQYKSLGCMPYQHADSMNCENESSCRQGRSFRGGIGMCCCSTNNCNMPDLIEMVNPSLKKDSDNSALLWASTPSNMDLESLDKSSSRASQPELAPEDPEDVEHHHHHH
Description: Preparation of type II Receptor ECD: Highly purified extracellular domain (ECD) of the type II receptor daf-4 was used in this assay. The ECD of the daf-4 receptor was cloned and vectors (pCMV5 expression vectors, daf-4 sequence including the mammalian consensus start site and the hexa-histidine sequence tag) are constructed for the expression of this molecule in mammalian cells. In this construct, the ECD has been linked to a hexa-Histadine sequence tag for subsequent purification and detection. The transfected DHFR(−) CHO cell line PJ511.9.8 has been used for the daf-4 expression as outlined below. This cloning method can also be utilized with other bone morphogenetic proteins.
Purification of daf-4 ECD: A purification protocol to process large volumes of conditioned media (3.5 L/week) was developed. The procedure involves initial isolation of daf-4 ECD by using Talon (Pharmacia Tech.) Immobilized metal affinity column. As daf-4 ECD protein is linked to a hexa-His sequence, the protein is bound to the metal affinity column and is subsequently eluted by imidazoic ([…]) containing buffer. […] The purified preparation was analyzed by reversed phase HPLC. […]
HTS assay procedure: BMP-7 binding activity was determined by a rapid solid-phase assay using ^125I-labeled BMP-7 as ligand and highly purified ECD of daf-4 as type II receptor. […]

bone formation = assay: Subcutaneous implantation assay in rodents (bone formation); format: in vivo; conditions: rat, subcutaneous implant, day 14, data not shown
Method: Subcutaneous implantation assay in rodents: This assay is based on the ability of BMP-7 to induce bone formation in the rat. […] Briefly, 1.2 mg of bovine bone matrix (collagen carrier) was added to BMP-7 or test peptide or small molecule or BMP-7 and test peptide in 200 μl of 50% acetonitrile, […]. A minimum of 6 animals per group were used. The day of implantation is designated as day 0 of the assay. Implants were removed on day 14 for evaluation. Bone-forming activity in the implants was monitored by the calcium content essentially as described by Reddi, A. H. & Huggins, C. B. (1972) PNAS USA 69, 1601-1605. For histology, implants were fixed in Bouin's solution, embedded in JB4 plastic medium, cut into 1 um sections, and stained by toluidine blue. […] (Data not shown)

daf-4 ECD = molecular target: T2, daf-4 ECD (Caenorhabditis elegans, UniProt P50488); assay: BMP binding to purified daf-4 ECD (ligand blot, Scatchard analysis); design: species or system C. elegans
T2 construct: 1 includes additional portions on the N and C terminus; made in house; host or cells: transfected DHFR(-) CHO cell line PJ511.9.8, purified from conditioned medium
T2 sequence (P50488 with tags, fused parts or gaps): T1 sequence (P50488 with tags, fused parts or gaps)
Description: A novel ligand-blot technique was developed to evaluate the binding of BMP-7 to the purified daf-4 ECD.

- inhibition of 125I-labeled BMP-7 binding to the ECD of daf-4 receptor (ECD of daf-4 receptor): 78%
- binding to extracellular domain of daf-4 (daf-4 ECD): readily binds
B1: BMP-7: homodimeric glycoprotein of the TGF-β superfamily; unlabeled standard (protein)
chain: STGSKQRSQNRSKTPKNQEALRMANVAENSSSDQRQACKKHELYVSFRDLGWQDWIIAPEGYAAYYCEGECAFPLNSYMNATNHAIVQTLVHFINPETVPKPCCAPTQLNAISVLYFDDSSNVILKKYRNMVVRACGCH
- bone formation in implants (bone formation): induced bone formation
